Results as given in publication PMC5874046, “Interaction of HuDA and PABP at 5'UTR of mouse insulin2 regulates insulin biosynthesis”.

Experiments:
His-HuD D [1] = target: T1, His-HuD D (mouse, UniProt Q61701-10 1-371); assay: EMSA; EMSA: 6% native PAGE, 0.5x TBE, 4°C (binding buffer as in cited work); biotin pull-down: 5 mM Tris pH 7.5, 15 mM KCl, 5 mM MgCl2, 0.25 mM DTT, 10% glycerol, 20; conditions: protein: recombinant; tags: His; label: radiolabel (probe); m-fold predicted structure
GST-HuD B = GST-HuD B (mouse, UniProt Q61701-4 1-380); assay: as above; conditions: protein: recombinant; tags: GST; label: radiolabel (probe); m-fold predicted structure
His-HuD A [2] = target: T2, His-HuD A (mouse, UniProt Q61701 1-385); assay: as above; conditions: protein: recombinant; tags: His; label: radiolabel (probe); m-fold predicted structure
His-HuD B = His-HuD B (mouse, UniProt Q61701-4 1-380); assay: as above; conditions: protein: recombinant; tags: His; label: radiolabel (probe); m-fold predicted structure
His-HuD D [3] = target: T1, His-HuD D; assay: competition; competitor; similar to L at low excess, differential at high excess; EMSA: 6% native PAGE, 0.5x TBE, 4°C (binding buffer as in cited work); biotin pull-down: 5 mM Tris pH 7.5, 15 mM KCl, 5 mM MgCl2, 0.25 mM DTT, 10% glycerol, 20; conditions: protein: recombinant; tags: His; m-fold predicted structure
His-HuD A [4] = target: T2, His-HuD A; assay: competition; competitor against labeled Ins2L; similar to L at low excess, differential at high excess; EMSA: 6% native PAGE, 0.5x TBE, 4°C (binding buffer as in cited work); biotin pull-down: 5 mM Tris pH 7.5, 15 mM KCl, 5 mM MgCl2, 0.25 mM DTT, 10% glycerol, 20; conditions: protein: recombinant; tags: His; m-fold predicted structure
His-HuD D [5] = target: T1, His-HuD D; assay: competition; competitor; EMSA: 6% native PAGE, 0.5x TBE, 4°C (binding buffer as in cited work); biotin pull-down: 5 mM Tris pH 7.5, 15 mM KCl, 5 mM MgCl2, 0.25 mM DTT, 10% glycerol, 20; conditions: protein: recombinant, tags: His
His-HuD A [6] = target: T2, His-HuD A; assay: competition; competitor against labeled Ins2L; EMSA: 6% native PAGE, 0.5x TBE, 4°C (binding buffer as in cited work); biotin pull-down: 5 mM Tris pH 7.5, 15 mM KCl, 5 mM MgCl2, 0.25 mM DTT, 10% glycerol, 20; conditions: protein: recombinant, tags: His

T1 sequence (Q61701 other isoform, or with tags, fused parts or gaps): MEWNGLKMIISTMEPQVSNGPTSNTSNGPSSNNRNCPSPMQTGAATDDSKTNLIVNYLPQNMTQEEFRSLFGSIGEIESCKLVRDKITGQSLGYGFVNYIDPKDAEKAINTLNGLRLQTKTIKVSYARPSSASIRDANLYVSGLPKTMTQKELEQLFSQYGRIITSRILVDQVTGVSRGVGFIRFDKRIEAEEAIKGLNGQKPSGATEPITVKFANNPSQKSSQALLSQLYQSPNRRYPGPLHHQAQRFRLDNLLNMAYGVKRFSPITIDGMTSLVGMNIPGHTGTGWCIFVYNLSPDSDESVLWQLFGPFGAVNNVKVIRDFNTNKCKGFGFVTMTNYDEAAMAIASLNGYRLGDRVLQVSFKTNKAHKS
T2 sequence (Q61701 whole entry): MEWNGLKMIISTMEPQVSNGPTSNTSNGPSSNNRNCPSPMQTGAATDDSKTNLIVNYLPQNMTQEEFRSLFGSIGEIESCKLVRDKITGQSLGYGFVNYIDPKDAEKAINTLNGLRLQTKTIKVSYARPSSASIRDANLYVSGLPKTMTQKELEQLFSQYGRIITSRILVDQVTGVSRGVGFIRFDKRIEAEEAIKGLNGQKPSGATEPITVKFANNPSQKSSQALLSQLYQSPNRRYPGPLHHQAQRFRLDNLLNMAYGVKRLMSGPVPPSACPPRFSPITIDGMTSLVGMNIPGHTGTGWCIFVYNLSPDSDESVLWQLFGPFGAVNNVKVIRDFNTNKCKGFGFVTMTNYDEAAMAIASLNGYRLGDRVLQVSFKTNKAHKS
Chain of GST-HuD B (Q61701 other isoform, or with tags, fused parts or gaps): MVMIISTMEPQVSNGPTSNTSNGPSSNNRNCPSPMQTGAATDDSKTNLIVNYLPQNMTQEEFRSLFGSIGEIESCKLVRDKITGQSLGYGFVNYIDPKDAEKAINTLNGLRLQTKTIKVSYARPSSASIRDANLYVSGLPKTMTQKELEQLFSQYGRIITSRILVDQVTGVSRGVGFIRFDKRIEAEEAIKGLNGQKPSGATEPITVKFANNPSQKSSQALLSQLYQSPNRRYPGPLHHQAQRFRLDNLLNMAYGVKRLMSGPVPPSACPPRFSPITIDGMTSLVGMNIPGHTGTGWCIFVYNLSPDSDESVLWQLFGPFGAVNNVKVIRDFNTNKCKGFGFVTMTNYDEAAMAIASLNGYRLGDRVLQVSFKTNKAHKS

B1: Ins2L 5'UTR (L) (structured_RNA)
RNA: GGGAGCCCUAAGUGAUCCGCUACAAUCAAAAACCAUCAGCAAGCAGGAAGCCUAUCUUCCAGGUUAUUGUUUCAAC
B1: binds (His-HuD D [1]); no binding (GST-HuD B); binds (His-HuD A [2]). B1: no binding (His-HuD B).

B2: Ins2S 5'UTR (S) (structured_RNA)
RNA: GGGAGCCCUAAGUGAUCCGCUACAAUCAAAAACCAUCAGCAAGCAGGAAGGUUAUUGUUUCAAC
B2: binds (His-HuD D [3]); binds (His-HuD A [4]).

B3: L2 (ssRNA)
RNA: GGGUACAAUCAAAAACCAUCAGCAA
B3: binds (His-HuD D [5]; label: radiolabel (probe)); binds (His-HuD A [6]; label: radiolabel (probe)).

B4: L4 (ssRNA)
RNA: GGGUCUUCCAGGUUAUUGUUUCAAC
B4: binds (His-HuD D [5]); binds (His-HuD A [6]).
